Assay results as given in patent publication US7399745 (dated 2008).
Residue numbers refer to the chain shown, from its start. Where no end group is shown, it is not given here.

T1: GLP-1 receptor (rat), P32301
T1 chain: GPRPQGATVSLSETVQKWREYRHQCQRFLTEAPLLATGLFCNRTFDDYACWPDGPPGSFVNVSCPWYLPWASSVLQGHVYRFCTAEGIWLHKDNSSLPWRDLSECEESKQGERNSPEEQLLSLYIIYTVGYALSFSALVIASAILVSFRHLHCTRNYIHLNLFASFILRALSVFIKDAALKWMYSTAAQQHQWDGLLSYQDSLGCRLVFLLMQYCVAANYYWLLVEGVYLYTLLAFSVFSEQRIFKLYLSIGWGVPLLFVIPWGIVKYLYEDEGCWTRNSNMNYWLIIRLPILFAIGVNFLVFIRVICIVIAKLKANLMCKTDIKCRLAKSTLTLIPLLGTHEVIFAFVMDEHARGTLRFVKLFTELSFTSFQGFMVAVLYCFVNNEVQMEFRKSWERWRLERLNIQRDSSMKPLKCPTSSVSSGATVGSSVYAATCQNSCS

T2: Glucagon receptor (rat), P30082
T2 chain: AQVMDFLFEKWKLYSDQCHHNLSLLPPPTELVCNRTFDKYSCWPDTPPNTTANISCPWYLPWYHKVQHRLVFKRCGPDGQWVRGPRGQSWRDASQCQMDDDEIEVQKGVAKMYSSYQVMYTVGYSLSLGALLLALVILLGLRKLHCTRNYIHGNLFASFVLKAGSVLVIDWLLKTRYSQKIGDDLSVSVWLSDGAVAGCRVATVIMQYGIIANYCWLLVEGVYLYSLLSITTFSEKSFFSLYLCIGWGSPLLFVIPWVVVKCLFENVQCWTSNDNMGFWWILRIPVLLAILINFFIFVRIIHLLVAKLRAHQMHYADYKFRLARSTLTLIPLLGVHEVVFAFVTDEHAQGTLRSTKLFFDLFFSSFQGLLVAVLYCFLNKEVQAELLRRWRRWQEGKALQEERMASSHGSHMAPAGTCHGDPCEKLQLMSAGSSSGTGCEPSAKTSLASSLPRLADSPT

T3: Glucagon receptor (rat, UniProt P30082)
T3 chain: T2 chain

T4: GLP-1 receptor (rat, UniProt P32301)
T4 chain: T1 chain

B1: G1 (peptide)
chain: HSQGTFTSDYSKYLDSRRAQDFVQWLVKGR
B2: G71 (peptide)
chain: HSQGTFTSDYAKYLDARRACEFIAWLVKGRG
B3: G74 (peptide)
chain: B2 chain with C20K, K28C
B4: G51 (peptide)
chain: B2 chain with C20K
B5: G88 (peptide)
chain: B2 chain with C20K, G31K
B6: G76 (peptide)
chain: B2 chain with C20K, R30C
B7: G77 (peptide)
chain: B2 chain with C20K, G31C
B8: G75 (peptide)
chain: B2 chain with C20K, G29C
B9: G58 (peptide)
chain: B2 chain with R17K, R18K, C20K
B10: G60 (peptide)
chain: B2 chain with R17A, R18K, C20K
B11: G82 (peptide)
chain: B2 chain with K12R, C20K, K28R
B12: G84 (peptide)
chain: B2 chain with K12R, C20R
B13: G277 (peptide)
chain: HSQGTFTSDYAKYLDARRAKEFIAWLVKGRC(PEG 22 kD)
B14: G4185 (peptide)
chain: HSQGTFTSDYARYLDARRAREFIKWLVRGRC(PEG 43 kD)
B15: G2185 (peptide)
chain: HSQGTFTSDYARYLDARRAREFIKWLVRGRC(PEG 22 kD)
B16: G90 (peptide)
chain: HSQGTFTSDYARYLDARRAREFIKWLVRGRG
B17: G183 (peptide)
chain: B16 chain with R20K
B18: G83 (peptide)
chain: B16 chain
B19: G185 (peptide)
chain: B16 chain with G31C
B20: G87 (peptide)
chain: HSQGTFTSDYAKYLDARRAKEFIAWLVKGR
B21: G59 (peptide)
chain: HSQGTFTSDYARYLDAKKAKEFIAWLVKGRG
B22: G61 (peptide)
chain: B21 chain with K17A
B23: G55 (peptide)
chain: B20 chain with K12R
B24: G5 (peptide)
chain: HSQGTFTSDYSKYLEGQAAKEFIAWLVKGR
B25: G57 (peptide)
chain: B20 chain with R17A
B26: G27 (peptide)
chain: B20 chain
B27: G56 (peptide)
chain: B20 chain with K12A
B28: G182 (peptide)
chain: HSQGTFTSDYARYLDARRAREFIKWLVRGRGK
B29: G85 (peptide)
chain: B28 chain with K24A

Tests used:
Assay in all cases: competition
[1] = target: T1, GLP-1 receptor (rat), P32301; details: modification not given
[2] = target: T2, Glucagon receptor (rat), P30082; details: modification not given
Glucagon receptor = target: T3, Glucagon receptor
GLP-1 receptor = target: T4, GLP-1 receptor

Binder | IC50 [1] [nM] | IC50 [2] [nM] | IC50 (Glucagon receptor) [nM] | IC50 (GLP-1 receptor) [nM]
B1 | 6 | 6.6 |  | 
B2 | 5.8 | 25.6 |  | 
B3 | 4.4 | 21.7 |  | 
B4 | 8.2 | 154 |  | 
B5 | 109 | 350 |  | 
B6 | 10.2 | 59.1 |  | 
B7 | 8.9 | 61.1 |  | 
B8 | 7.7 | 54 |  | 
B9 | 6.9 | 164 |  | 
B10 | 13.8 | 682 |  | 
B11 | 8.1 | 33.6 |  | 
B12 | 1.4 | 11.7 |  | 
B13 |  |  | 65.5 | 
B14 |  |  | 547 | 248
B15 |  |  | 347 | 56.1
B16 | 25.4 | 726 |  | 
B17 | 159 | 663 |  | 
B18 | 3.2 | 28.6 |  | 
B19 | 4.5 | 48 |  | 
B20 | 98.6 | 620 |  | 
B21 | 2.1 | 97.5 |  | 
B22 | 10.6 | 232 |  | 
B23 | 9.8 | 139 |  | 
B24 | 0.5 | 243 |  | 
B25 | 14.7 | 178 |  | 
B26 | 2.2 | 69.3 |  | 
B27 | 6.6 | 125 |  | 
B28 | 12.6 | 220 |  | 
B29 | 1.5 | 16.1 |  | 
